In patent US20230043289A1 (AC IMMUNE, published 2023):
Positions count from the first letter of the chain named. Names and notes keep the numbering of the source. Where no end group is shown, it is not given here.

T1: Tau fragment 28-42 (human, UniProt P10636-8 28-42)
T1 construct: range 28-42
T1 peptide (looked up): GYTMHQDQEGDTDAG

T2: Tau fragment 1-15 (human, UniProt P10636-8 1-15)
T2 construct: range 1-15
T2 peptide (looked up): MAEPRQEFEVMEDHA

T3: MAPT(10-24) (human, also: biotinylated (position not given here))
T3 construct: also called Tau fragment 10-24
T3 peptide: VMEDHAGTYGLGDRK

T4: Tau fragment 19-33 (human, UniProt P10636-8 19-33)
T4 construct: range 19-33
T4 peptide (looked up): GLGDRKDQGGYTMHQ

T5: Tau fragment 37-51 (human, UniProt P10636-8 37-51)
T5 construct: range 37-51
T5 peptide (looked up): GDTDAGLKESPLQTP

B1: hu37D3-H9.v5 hIgG4.S228P, stressed (t = 2 weeks) (antibody, V domains shown)
VH: EVQLVESGGGLVQPGGSLRLSCAASGLIFRSYGMSWVRQAPGKGLEWVATINSGGTYTYYPDSVKGRFTISRDNSKNTLYLQMNSLRAEDTAVYYCANSYSGAMDYWGQGTLVTVSS
VL: EDVLTQTPLSLPVTPGQPASISCRSSQSIVHSNGNTYFEWYLQKPGQSPQLLIYKVSNRFSGVPDRFSGSGSGTDFTLKISRVEAEDVGVYYCFQGSLVPWTFGQGTKVEIK
modifications: light chain N28 (Kabat) partly deamidated: 43.1% increase after 2 weeks at 40 C in PBS pH 7.4
notes: human IgG4 with S228P, kappa; thermally stressed sample, a mixed population
B2: hu37D3-H9.v83 (antibody, V domains shown)
VH: B1 VH with V5L, Y57R
VL: B1 VL with E1D, V3L, T7S, P15L, F38L, L42Q, K44R, Q50R, S97T
B3: hu37D3-H9.v93 (antibody, V domains shown)
VH: B1 VH with Y57R
VL: EDLLTQSPSSLSASVGDRVTITCRSSQSIVHSNGNTYLEWYQQKPGKSPKLLIYKVSNRFSGVPSRFSGSGSGTDFTLTISSLQPEDFATYYCFQGTLVPWTFGQGTKVEIK
B4: hu37D3-H9.v76 (antibody, V domains shown)
VH: B1 VH with Y57R
VL: B1 VL with E1D, V3L, F38L, S97T
B5: 19H6-F7 (antibody, IgG2a, V domains shown)
VH: EVQLVESGGDLVKPGGSLKLSCAASGFTFSSYGMSWVRQTPDKRLEWVATISSGGTYTYYPDSVKGRFTISRDNAKNTLYLQMSSLKSEDTAMYYCAPSYDGAMDYWGQGTSVTVSS
VL: DVLMTQTPLSLPVSLGDQASISCRSSQSIVHSNGNTYLEWYLQKPGQSPKLLIYKVSNRFSGVPDRFSGSGSGTDFTLKISRVEAEDLGVYYCFQGSLVPWTFGGGTKLEIK
notes: Ex.2 hybridoma supernatant; Ex.3 recombinant mIgG2a/kappa
B6: 3A4-H4 (antibody, IgG2a, V domains shown)
VH: B5 VH with Y95F, P98T
VL: B5 VL with S28N, S97T
notes: as for B5
B7: 54C1-H11 (antibody, IgG2a, V domains shown)
VH: B5 VH with L20V, A23V, S30R, E46D, T56N, P98S, D101S
VL: B5 VL with V2T, L3V, T7S, K55T, L98H
notes: as for B5
B8: 94B2-C1 (antibody, IgG2a, V domains shown)
VH: EVQLQQSGPELVKPGASMKISCKASGYSLTGYTMNWVKQSHGKNLEWIGLISPYNGVTSYNQKFKGKATLTVDKSSNTAYMELLSLTFEDSAVYYCARQGAYWGQGTLVTVSA
VL: not shown
notes: as for B5
B9: 89F4-A1 (antibody, IgG2a, V domains shown)
VH: EVQLVESGGGLVQPKGSLKLSCAASGFTFNTYAMNWVRQAPGKGLEWVARIRSKSNNYAAYFADSVKDRFTISRDDSQTMLYLQMNNLKSEDTAMYYCVSGGNYVPFAYWGQGTLVTVSA
VL: NIMMTQSPSSLAVSAGEKVTMSCKSSQSVFYSSEQRNYLAWYQQKPGQSPKLLISWASTRESGVPDRFTGSGSGTDFTLTISSVQGEDLAVYYCHQYLSSFTFGSGTKLEIK
notes: as for B5
B10: 123E9-A1 (antibody, IgG2a, V domains shown)
VH: EVQLQQSGPELVKPGASVKMSCKASGYTFTDYYMKWVKQSHGKSLEWIGDIDPNNGGTSYNQKFKGKATLTVDKSSSTAYMQLNSLTSEDSAVYYCARSAGFGDSFSFWGLGTLVTVSA
VL: B5 VL with V90F, L98H, W101P
notes: as for B5

biological target: T6, Human Tau monomer (recombinant 2N4R isoform, amino acids 2-441) (human, UniProt P10636-8 2-441); assay: SPR, hIgG captured, Tau monomer 3.1-100 nM
T6 construct: range 2-441; also called monomeric human Tau; human monomer Tau protein
Method: To assess the impact of N²⁸ deamidation on the affinity for human Tau, it was desirable to obtain two samples with widely separated N²⁸ deamidation status. Hu37D3-H9.v5 hIgG4.S228P was incubated at 40° C. for two weeks at a concentration of 1 mg/ml in Phosphate Buffered Saline, pH 7.4. Deamidation of the N²⁸G²⁹ motif was measured using LC-MS/MS. […] The stressed and unstressed antibodies were analyzed for Tau binding by surface plasmon resonance (Biacore) using the GE Biacore human IgG capture kit and a Series S CM5 chip. The hIgG were diluted to 2 μg/ml in 10 mM HEPES pH7.4, 150 mM NaCl, 0.05% Tween 20 (running buffer, HBSP) and captured at a flow rate of 10 μl/min for 15 seconds (t0 sample) or 17 seconds (t2 sample). […] Between cycles the surface was regenerated using a 30 second injection of 3M Magnesium Chloride at 10 μl/min. A 1:1 binding model was fitted to the data using instrument defaults, including local fitting of the “RI” parameter.

T6 sequence (P10636 other isoform, or with tags, fused parts or gaps limits assumed): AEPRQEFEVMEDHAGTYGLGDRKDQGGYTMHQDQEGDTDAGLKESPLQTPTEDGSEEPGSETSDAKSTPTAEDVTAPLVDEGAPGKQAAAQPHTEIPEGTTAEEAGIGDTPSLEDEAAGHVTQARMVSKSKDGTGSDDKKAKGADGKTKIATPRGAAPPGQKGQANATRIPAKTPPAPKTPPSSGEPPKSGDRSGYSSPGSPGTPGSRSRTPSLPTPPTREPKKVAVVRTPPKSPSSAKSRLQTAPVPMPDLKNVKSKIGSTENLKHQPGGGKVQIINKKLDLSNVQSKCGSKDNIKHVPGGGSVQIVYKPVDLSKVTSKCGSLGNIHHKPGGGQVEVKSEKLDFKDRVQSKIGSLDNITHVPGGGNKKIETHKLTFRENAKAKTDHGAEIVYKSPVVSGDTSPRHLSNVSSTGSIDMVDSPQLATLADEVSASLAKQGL

Kd | Binder
0.7 nM | B1

biological target: T6, Human Tau monomer (recombinant 2N4R …); assay: SPR 25C, hIgG captured, Tau monomer analyte

Kd | Binder
1.5 nM | B1

biological target: T6, Human Tau monomer (recombinant 2N4R …); assay: SPR 37C, hIgG captured, Tau monomer 0.1-33.3 nM
Method: Affinity for human and cynomolgus monkey Tau was measured at 37° C. using a Biacore T200 instrument, the GE Biacore human IgG capture kit and a Series S CM5 Sensor Chip. Antibodies were diluted to 1 μg/ml in running buffer HBS-EP (10 mM HEPES pH7.4, 150 mM NaCl, 1 mM EDTA, 0.05% Tween 20) and captured at a flow rate of 10 μl/min for 15 seconds. Data was collected for the binding of human and cynomolgus Tau monomer, each of which was injected at 0, 0.1, 0.4, 1.2, 3.7, 11.1, and 33.3 nM, using a flow rate of 30 μl/min, a contact time of 300 s, and a dissociation time of 900 s. Between cycles, the surface was regenerated with 3M magnesium chloride. Data was fit to a 1:1 binding model using BIAEvaluation software.

Kd | koff | kon | Binder
0.1 nM | 0.000818 s⁻¹ | 6.19e+06 M⁻¹ s⁻¹ | B2
0.1 nM | 0.00102 s⁻¹ | 6.89e+06 M⁻¹ s⁻¹ | B3
0.1 nM | 0.000892 s⁻¹ | 6.94e+06 M⁻¹ s⁻¹ | B4

Biological target: T1, Tau fragment 28-42
Assay: ELISA on Tau 15-mer peptides

binding result | Binder
no binding | B5
no binding | B6
no binding | B7
no binding | B8

Biological target: T2, Tau fragment 1-15
Assay: ELISA on Tau 15-mer peptides

binding result | Binder
no binding | B9
no binding | B10
no binding | B5
no binding | B6
no binding | B7

Biological target: T3, MAPT(10-24)
Assay: ELISA on Tau 15-mer peptides

binding result | Binder
no binding | B9
no binding | B10

Biological target: T4, Tau fragment 19-33
Assay: ELISA on Tau 15-mer peptides

binding result | Binder
no binding | B9
no binding | B5
no binding | B6
no binding | B7

Biological target: T5, Tau fragment 37-51
Assay: ELISA on Tau 15-mer peptides

binding result | Binder
no binding | B10
no binding | B5
no binding | B6
no binding | B7
no binding | B8
